Data on two molecules can be found in article doi:10.1101/2020.02.18.954511 (bioRxiv, 2020).

The data set “dynamic light scattering” deals with the molecule itself. Description: dynamic light scattering.
Data set [1] has as its target T1, diol dehydratase PduCDE (Salmonella enterica, UniProt P37450 1-554; O31041 1-224; O31042 1-173).
T1 sequence (looked up) 1: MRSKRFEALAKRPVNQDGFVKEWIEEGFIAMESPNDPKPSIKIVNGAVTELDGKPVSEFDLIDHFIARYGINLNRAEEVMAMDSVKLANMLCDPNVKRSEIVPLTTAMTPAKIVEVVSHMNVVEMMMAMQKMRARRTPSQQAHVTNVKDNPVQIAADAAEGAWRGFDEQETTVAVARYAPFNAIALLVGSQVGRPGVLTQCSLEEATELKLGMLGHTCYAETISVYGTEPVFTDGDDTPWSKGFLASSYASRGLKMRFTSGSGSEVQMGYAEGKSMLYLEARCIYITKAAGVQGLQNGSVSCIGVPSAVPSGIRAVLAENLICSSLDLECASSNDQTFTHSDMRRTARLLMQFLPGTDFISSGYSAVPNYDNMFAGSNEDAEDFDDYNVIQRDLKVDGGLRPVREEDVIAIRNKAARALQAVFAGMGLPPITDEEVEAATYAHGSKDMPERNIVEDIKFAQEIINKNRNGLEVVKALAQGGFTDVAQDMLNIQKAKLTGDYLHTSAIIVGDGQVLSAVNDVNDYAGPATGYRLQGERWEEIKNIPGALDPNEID
T1 sequence (looked up) 2: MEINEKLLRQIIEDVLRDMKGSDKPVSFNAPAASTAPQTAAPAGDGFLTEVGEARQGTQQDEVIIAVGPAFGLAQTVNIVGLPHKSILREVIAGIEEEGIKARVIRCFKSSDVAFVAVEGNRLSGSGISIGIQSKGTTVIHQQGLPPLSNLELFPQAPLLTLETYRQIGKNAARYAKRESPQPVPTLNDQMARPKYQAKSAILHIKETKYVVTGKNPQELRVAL
T1 sequence (looked up) 3: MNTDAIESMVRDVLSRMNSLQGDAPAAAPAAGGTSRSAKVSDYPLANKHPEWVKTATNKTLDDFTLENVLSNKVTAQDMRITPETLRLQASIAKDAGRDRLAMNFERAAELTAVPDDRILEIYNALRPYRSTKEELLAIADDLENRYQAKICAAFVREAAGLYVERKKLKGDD
The experiment in a line: time-resolved fluorescence anisotropy. On the technique in general: In fluorescence polarisation assays a small probe gives low polarisation when free and higher when bound to something large.

Data set [2] deals with T1, diol dehydratase PduCDE. Description: time-resolved fluorescence anisotropy. The source holds these as a separate data set.

Like-named read-outs stand apart in the source and are kept apart here.

B1: shell protein PduB (N-terminal truncated) (natural protein, Salmonella enterica, UniProt P37449 38-270, looked up)
chain: MAEKSCSLTEFVGTAIGDTLGLVIANVDTALLDAMKLEKRYRSIGILGARTGAGPHIMAADEAVKATNTEVVSIELPRDTKGGAGHGSLIILGGNDVSDVKRGIEVALKELDRTFGDVYGNEAGHIELQYTARASYALEKAFGAPIGRACGIIVGAPASVGVLMADTALKSANVEVVAYSSPAHGTSFSNEAILVISGDSGAVRQAVTSAREIGKTVLATLGSEPKNDRPSYI
Take B1: the binding result in “dynamic light scattering” and with diol dehydratase PduCDE [1] was “binds” in each case.

B2: shell protein PduB’M38L (natural protein, Salmonella enterica, UniProt P37449 1-270, looked up)
chain: MSSNELVEQIMAQVIARVATPEQQAIPGQPQPIRETALAEKSCSLTEFVGTAIGDTLGLVIANVDTALLDAMKLEKRYRSIGILGARTGAGPHIMAADEAVKATNTEVVSIELPRDTKGGAGHGSLIILGGNDVSDVKRGIEVALKELDRTFGDVYGNEAGHIELQYTARASYALEKAFGAPIGRACGIIVGAPASVGVLMADTALKSANVEVVAYSSPAHGTSFSNEAILVISGDSGAVRQAVTSAREIGKTVLATLGSEPKNDRPSYI
Take B2: the binding result with diol dehydratase PduCDE [2] is “binds”.
